# Measured values reported in article PMC5177531 (2016).
# Non-standard residues stand in square brackets, D forms with d. No end group written: not given here. *: point of attachment. NMeF = CN[C@@H](Cc1ccccc1)C(=O)O; NHCH2CH2OH = OCCN*
# T1: mDOR-1 (Mus musculus, UniProt P32300)
# T1 chain: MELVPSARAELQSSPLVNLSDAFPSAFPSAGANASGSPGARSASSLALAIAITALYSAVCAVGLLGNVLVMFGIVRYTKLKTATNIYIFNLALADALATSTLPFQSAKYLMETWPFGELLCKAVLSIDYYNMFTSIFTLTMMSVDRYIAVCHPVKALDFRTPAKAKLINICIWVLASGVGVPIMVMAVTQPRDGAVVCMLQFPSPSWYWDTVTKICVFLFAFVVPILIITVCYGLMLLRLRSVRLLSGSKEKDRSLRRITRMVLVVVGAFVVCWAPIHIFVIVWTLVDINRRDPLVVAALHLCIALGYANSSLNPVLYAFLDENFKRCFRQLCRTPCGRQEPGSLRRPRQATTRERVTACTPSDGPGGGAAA
# B1: DAMGO (peptide)
# chain: Y[dA]G[NMeF][NHCH2CH2OH]
# Target: T1, mDOR-1
# Assay: 125I-IBNtxA competition, CHO membranes
binder,measurement,value
B1,Ki,> 500 nM
